First the molecules themselves.
T1: TROP2 on TROP2-positive NCI-H1975 cells (human, UniProt P09758 27-323)
T1 sequence: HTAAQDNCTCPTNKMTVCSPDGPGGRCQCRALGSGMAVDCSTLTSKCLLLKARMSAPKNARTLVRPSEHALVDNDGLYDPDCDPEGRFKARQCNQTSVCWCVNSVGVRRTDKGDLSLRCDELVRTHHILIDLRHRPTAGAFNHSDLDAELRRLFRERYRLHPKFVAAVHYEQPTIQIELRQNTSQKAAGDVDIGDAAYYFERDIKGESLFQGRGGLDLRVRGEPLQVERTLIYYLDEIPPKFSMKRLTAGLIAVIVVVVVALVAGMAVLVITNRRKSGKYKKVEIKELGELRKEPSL

B1: MYT13429 (antibody, V domains shown)
VH: QVQLQQSGSELKKPGASVKVSCKASGYTFTNYGMNWVKQAPGQGLKWMGWINTYTGEPTYTDDFKHRFAFSLDTSVSTAYLQISSLKADDTAVYFCARGGFGSSYWYFDVWGQGSLVTVSS
VL: DIQLTQSPSSLSASVGDRVSITCKASQDVHIAVAWYQQKPGKAPKLLIYSHSYRYTGVPDRFSGSGSGTDFTLTISSLQPEDFAVYYCQQHYHTPLTFGAGTKVEIK
B2: MYT13376 (antibody, V domains shown)
VH: QVQLQQSGSELKKPGASVKVSCKASGYTFTNYGMNWVKQAPGQGLKWMGWINTYTGEPTHTDDFKGRFAFSLDTSVSTAYLQISSLKADDTAVYFCARGGFGSSYWYFDVWGQGSLVTVSS
VL: DIQLTQSPSSLSASVGDRVSITCKASQDVHIAVAWYQQKPGKAPKLLIYSHSYRYTGVPDRFSGSGSGTDFTLTISSLQPEDFAVYYCQQHYITPLTFGAGTKVEIK
B3: MYT13371 (antibody, V domains shown)
VH: QVQLQQSGSELKKPGASVKVSCKASGYTFTNYGMNWVKQAPGQGLKWMGWINTYTGEPTYTDDHKGRFAFSLDTSVSTAYLQISSLKADDTAVYFCARGGFGSSYWYFDVWGQGSLVTVSS
VL: DIQLTQSPSSLSASVGDRVSITCKASQDVHIAHAWYQQKPGKAPKLLIYSASYRYTGVPDRFSGSGSGTDFTLTISSLQPEDFAVYYCQQHYITPLTFGAGTKVEIK
B4: MYT13421 (antibody, V domains shown)
VH: QVQLQQSGSELKKPGASVKVSCKASGYTFTNYGMNWVKQAPGQGLKWMGWINTYTGEPTYTDDFKHRFAFSLDTSVSTAYLQISSLKADDTAVYFCARGGFGSSYWYFDVWGQGSLVTVSS
VL: DIQLTQSPSSLSASVGDRVSITCKASQDVHIAVAWYQQKPGKAPKLLIYSHSYRYTGVPDRFSGSGSGTDFTLTISSLQPEDFAVYYCHQHYITPLTFGAGTKVEIK
B5: MYT13432 (antibody, V domains shown)
VH: QVQLQQSGSELKKPGASVKVSCKASGYTFTNYGMNWVKQAPGQGLKWMGWINTYTGEPTHTDDFKGRFAFSLDTSVSTAYLQISSLKADDTAVYFCARGGFGSSYWYFDVWGQGSLVTVSS
VL: DIQLTQSPSSLSASVGDRVSITCKASQDVSIAVAWYQQKPGKAPKLLIYSHSHRYTGVPDRFSGSGSGTDFTLTISSLQPEDFAVYYCQQHYHTPLTFGAGTKVEIK
B6: MYT13379 (antibody, V domains shown)
VH: QVQLQQSGSELKKPGASVKVSCKASGYTFTNYGMNWVKQAPGQGLKWMGWINTYTGEPTYTDDHKGRFAFSLDTSVSTAYLQISSLKADDTAVYFCARGGFGSSYWYFDVWGQGSLVTVSS
VL: DIQLTQSPSSLSASVGDRVSITCKASQDVHIAVAWYQQKPGKAPKLLIYSHSYRYTGVPDRFSGSGSGTDFTLTISSLQPEDFAVYYCQQHYITPLTFGAGTKVEIK
B7: MYT13434 (antibody, V domains shown)
VH: QVQLQQSGSELKKPGASVKVSCKASGYTFTNYGMNWVKQAPGQGLKWMGWINTYTGEPTYTDHFKGRFAFSLDTSVSTAYLQISSLKADDTAVYFCARGGFGSSYWYFDVWGQGSLVTVSS
VL: DIQLTQSPSSLSASVGDRVSITCKASQDVSIAVAWYQQKPGKAPKLLIYSHSHRYTGVPDRFSGSGSGTDFTLTISSLQPEDFAVYYCQQHYHTPLTFGAGTKVEIK
B8: MYT13417 (antibody, V domains shown)
VH: QVQLQQSGSELKKPGASVKVSCKASGYTFTNYGMNWVKQAPGQGLKWMGWINTYTGEPTYTHDFKGRFAFSLDTSVSTAYLQISSLKADDTAVYFCARGGFGSSYWYFDVWGQGSLVTVSS
VL: DIQLTQSPSSLSASVGDRVSITCKASQDVHIAVAWYQQKPGKAPKLLIYSHSYRYTGVPDRFSGSGSGTDFTLTISSLQPEDFAVYYCHQHYITPLTFGAGTKVEIK
B9: MYT13378 (antibody, V domains shown)
VH: QVQLQQSGSELKKPGASVKVSCKASGYTFTNYGMNWVKQAPGQGLKWMGWINTYTGEPTYTDHFKGRFAFSLDTSVSTAYLQISSLKADDTAVYFCARGGFGSSYWYFDVWGQGSLVTVSS
VL: DIQLTQSPSSLSASVGDRVSITCKASQDVHIAVAWYQQKPGKAPKLLIYSHSYRYTGVPDRFSGSGSGTDFTLTISSLQPEDFAVYYCQQHYITPLTFGAGTKVEIK
B10: MYT13426 (antibody, V domains shown)
VH: QVQLQQSGSELKKPGASVKVSCKASGYTFTNYGMNWVKQAPGQGLKWMGWINTYTGEPTYTDHFKGRFAFSLDTSVSTAYLQISSLKADDTAVYFCARGGFGSSYWYFDVWGQGSLVTVSS
VL: DIQLTQSPSSLSASVGDRVSITCKASQDVHIAVAWYQQKPGKAPKLLIYSHSYRYTGVPDRFSGSGSGTDFTLTISSLQPEDFAVYYCQQHYHTPLTFGAGTKVEIK
B11: MYT13373 (antibody, V domains shown)
VH: QVQLQQSGSELKKPGASVKVSCKASGYTFTNYGMNWVKQAPGQGLKWMGWINTYTGEPTYTDDFKHRFAFSLDTSVSTAYLQISSLKADDTAVYFCARGGFGSSYWYFDVWGQGSLVTVSS
VL: DIQLTQSPSSLSASVGDRVSITCKASQDVHIAHAWYQQKPGKAPKLLIYSASYRYTGVPDRFSGSGSGTDFTLTISSLQPEDFAVYYCQQHYITPLTFGAGTKVEIK
B12: MYT13424 (antibody, V domains shown)
VH: QVQLQQSGSELKKPGASVKVSCKASGYTFTNYGMNWVKQAPGQGLKWMGWINTYTGEPTHTDDFKGRFAFSLDTSVSTAYLQISSLKADDTAVYFCARGGFGSSYWYFDVWGQGSLVTVSS
VL: DIQLTQSPSSLSASVGDRVSITCKASQDVHIAVAWYQQKPGKAPKLLIYSHSYRYTGVPDRFSGSGSGTDFTLTISSLQPEDFAVYYCQQHYHTPLTFGAGTKVEIK
B13: MYT13386 (antibody, V domains shown)
VH: QVQLQQSGSELKKPGASVKVSCKASGYTFTNYGMNWVKQAPGQGLKWMGWINTYTGEPTYTDHFKGRFAFSLDTSVSTAYLQISSLKADDTAVYFCARGGFGSSYWYFDVWGQGSLVTVSS
VL: DIQLTQSPSSLSASVGDRVSITCKASQDVHIAVAWYQQKPGKAPKLLIYSAHYRYTGVPDRFSGSGSGTDFTLTISSLQPEDFAVYYCQQHYITPLTFGAGTKVEIK
B14: MYT13437 (antibody, V domains shown)
VH: QVQLQQSGSELKKPGASVKVSCKASGYTFTNYGMNWVKQAPGQGLKWMGWINTYTGEPTYTDDFKHRFAFSLDTSVSTAYLQISSLKADDTAVYFCARGGFGSSYWYFDVWGQGSLVTVSS
VL: DIQLTQSPSSLSASVGDRVSITCKASQDVSIAVAWYQQKPGKAPKLLIYSHSHRYTGVPDRFSGSGSGTDFTLTISSLQPEDFAVYYCQQHYHTPLTFGAGTKVEIK
B15: MYT13433 (antibody, V domains shown)
VH: QVQLQQSGSELKKPGASVKVSCKASGYTFTNYGMNWVKQAPGQGLKWMGWINTYTGEPTYTHDFKGRFAFSLDTSVSTAYLQISSLKADDTAVYFCARGGFGSSYWYFDVWGQGSLVTVSS
VL: DIQLTQSPSSLSASVGDRVSITCKASQDVSIAVAWYQQKPGKAPKLLIYSHSHRYTGVPDRFSGSGSGTDFTLTISSLQPEDFAVYYCQQHYHTPLTFGAGTKVEIK
B16: MYT13368 (antibody, V domains shown)
VH: QVQLQQSGSELKKPGASVKVSCKASGYTFTNYGMNWVKQAPGQGLKWMGWINTYTGEPTHTDDFKGRFAFSLDTSVSTAYLQISSLKADDTAVYFCARGGFGSSYWYFDVWGQGSLVTVSS
VL: DIQLTQSPSSLSASVGDRVSITCKASQDVHIAHAWYQQKPGKAPKLLIYSASYRYTGVPDRFSGSGSGTDFTLTISSLQPEDFAVYYCQQHYITPLTFGAGTKVEIK
B17: MYT13366 (antibody, V domains shown)
VH: QVQLQQSGSELKKPGASVKVSCKASGYTFTNHGMNWVKQAPGQGLKWMGWINTYTGEPTYTDDFKGRFAFSLDTSVSTAYLQISSLKADDTAVYFCARGGFGSSYWYFDVWGQGSLVTVSS
VL: DIQLTQSPSSLSASVGDRVSITCKASQDVHIAHAWYQQKPGKAPKLLIYSASYRYTGVPDRFSGSGSGTDFTLTISSLQPEDFAVYYCQQHYITPLTFGAGTKVEIK
B18: MYT13374 (antibody, V domains shown)
VH: QVQLQQSGSELKKPGASVKVSCKASGYTFTNHGMNWVKQAPGQGLKWMGWINTYTGEPTYTDDFKGRFAFSLDTSVSTAYLQISSLKADDTAVYFCARGGFGSSYWYFDVWGQGSLVTVSS
VL: DIQLTQSPSSLSASVGDRVSITCKASQDVHIAVAWYQQKPGKAPKLLIYSHSYRYTGVPDRFSGSGSGTDFTLTISSLQPEDFAVYYCQQHYITPLTFGAGTKVEIK
B19: MYT13418 (antibody, V domains shown)
VH: QVQLQQSGSELKKPGASVKVSCKASGYTFTNYGMNWVKQAPGQGLKWMGWINTYTGEPTYTDHFKGRFAFSLDTSVSTAYLQISSLKADDTAVYFCARGGFGSSYWYFDVWGQGSLVTVSS
VL: DIQLTQSPSSLSASVGDRVSITCKASQDVHIAVAWYQQKPGKAPKLLIYSHSYRYTGVPDRFSGSGSGTDFTLTISSLQPEDFAVYYCHQHYITPLTFGAGTKVEIK
B20: MYT13420 (antibody, V domains shown)
VH: QVQLQQSGSELKKPGASVKVSCKASGYTFTNYGMNWVKQAPGQGLKWMGWINTYTGEPTYTDDFHGRFAFSLDTSVSTAYLQISSLKADDTAVYFCARGGFGSSYWYFDVWGQGSLVTVSS
VL: DIQLTQSPSSLSASVGDRVSITCKASQDVHIAVAWYQQKPGKAPKLLIYSHSYRYTGVPDRFSGSGSGTDFTLTISSLQPEDFAVYYCHQHYITPLTFGAGTKVEIK

The test addresses T1, TROP2 on TROP2-positive NCI-H1975 cells. In words: cell-based or functional assay.
Turning to B1, the “FOW H1975 (10 nM)” value is 1.83 fold over parent antibody.
On to B2, for which the “FOW H1975 (10 nM)” value was 1.42 fold over parent antibody.
Regarding B3, the “FOW H1975 (10 nM)” value is 1.51 fold over parent antibody.
Under B4 stands 1.42 fold over parent antibody.
In the case of B5, the “FOW H1975 (10 nM)” value amounted to 1.4 fold over parent antibody.
On to B6, for which the “FOW H1975 (10 nM)” value was determined as 1.33 fold over parent antibody.
Next, B7: 1.46 fold over parent antibody.
Under B8 stands 1.76 fold over parent antibody; under B9, 1.4 fold over parent antibody.
Next, B10: 1.71 fold over parent antibody; B11: 1.6 fold over parent antibody.
In the case of B12, the “FOW H1975 (10 nM)” value worked out at 1.71 fold over parent antibody.
Next, B13: 1.71 fold over parent antibody; B14: 1.49 fold over parent antibody; B15: 1.82 fold over parent antibody.
As to B16, the “FOW H1975 (10 nM)” value is 1.43 fold over parent antibody.
Consider B17, for which the “FOW H1975 (10 nM)” value is 1.35 fold over parent antibody.
Next, B18: 1.37 fold over parent antibody.
Under B19 stands 1.51 fold over parent antibody.
Under B20 stands 1.34 fold over parent antibody.

The values above are taken from patent US20260274985A1 (MYTHIC THERAPEUTICS, published 2026).
